Results as given in publication PMC5641968 (2017).
Like-named read-outs stand apart in the source and are kept apart here.

Key:
Test in all cases: biolayer interferometry
[1] = molecular target: calmodulin (UniProt P0DP23)
[2] = molecular target: calmodulin (UniProt P0DP23); remark: listed apart in the source
[3] = molecular target: calmodulin (UniProt P0DP23); remark: listed apart in the source

B1: eNOS (protein)
chain: GNLKSVGQEPGPPCGLGLGLGLGLCGKQGPASPAPEPSRAPAPATPHAPDHSPAPNSPTLTRPPEGPKFPRVKNWELGSITYDTLCAQSQQDGPCTPRCCLGSLVLPRKLQTRPSPGPPPAEQLLSQARDFINQYYSSIKRSGSQAHEERLQEVEAEVASTGTYHLRESELVFGAKQAWRNAPRCVGRIQWGKLQVFDARDCSSAQEMFTYICNHIKYATNRGNLRSAITVFPQRAPGRGDFRIWNSQLVRYAGYRQQDGSVRGDPANVEITELCIQHGWTPGNGRFDVLPLLLQAPDEAPELFVLPPELVLEVPLEHPTLEWFAALGLRWYALPAVSNMLLEIGGLEFSAAPFSGWYMSTEIGTRNLCDPHRYNILEDVAVCMDLDTRTTSSLWKDKAAVEINLAVLHSFQLAKVTIVDHHAATVSFMKHLDNEQKARGGCPADWAWIVPPISGSLTPVFHQEMVNYILSPAFRYQPDPWKGSATKGAGITRKKTFKEVANAVKISASLMGTLMAKRVKATILYASETGRAQSYAQQLGRLFRKAFDPRVLCMDEYDVVSLEHEALVLVVTSTFGNGDPPENGESFAAALMEMSGPYNSSPRPEQHKSYKIRFNSVSCSDPLVSSWRRKRKESSNTDSAGALGTLRFCVFGLGSRAYPHFCAFARAVDTRLEELGGERLLQLGQGDELCGQEEAFRGWAKAAFQASCETFCVGEEAKAAAQDIFSPKRSWKRQRYRLSTQAEGLQLLPGLIHVHRRKMFQATVLSVENLQSSKSTRATILVRLDTAGQEGLQYQPGDHIGICPPNRPGLVEALLSRVEDPPPPTESVAVEQLEKGSPGGPPPSWVRDPRLPPCTLRQALTFFLDITSPPSPRLLRLLSTLAEEPSEQQELETLSQDPRRYEEWKWFRCPTLLEVLEQFPSVALPAPLLLTQLPLLQPRYYSVSSAPNAHPGEVHLTVAVLAYRTQDGLGPLHYGVCSTWLSQLKTGDPVPCFIRGAPSFRLPPDPYVPCILVGPGTGIAPFRGFWQERLHDIESKGLQPAPMTLVFGCRCSQLDHLYRDEVQDAQERGVFGRVLTAFSREPDSPKTYVQDILRTELAAEVHRVLCLERGHMFVCGDVTMATSVLQTVQRILATEGDMELDEAGDVIGVLRDQQRYHEDIFGLTLRTQEVTSRIRTQSFSLQERHLRGAVPWAFDPPGPDTPGP
modifications: Ca2+
Kd [1]: 645 pM
Kd [2]: 650 pM
Kd [3]: 500 pM
